Like-named read-outs stand apart in the source and are kept apart here.
Key:
[1] = molecular target: T1, human complement C5 protein (human, UniProt P01031 19-673; P01031 678-1676, Beta and alpha chains are joined by disulfide bonds. C5 was biotinylated in some assays.)
[2] = molecular target: T1, human complement C5 protein; remark: listed apart in the source
[3] = molecular target: T1, human complement C5 protein; remark: listed apart in the source
[4] = molecular target: T1, human complement C5 protein; assay: SET (MSD), IgG, 1st measurement
Procedure: (§1) In order to improve the sensitivity and accuracy of the SET method, it was transferred from classical ELISA to ECL based technology (Haenel et al., Anal Biochem 339:182-184 (2005)).
(§2) 1 mg/ml goat-anti-human (Fab)₂ fragment specific antibodies (Dianova) were labelled with ECL Sulfo-TAG™ NHS-Ester (Meso Scale Discovery, Gaithersburg, Md., USA) according to the manufacturer's instructions. The experiments were carried out in polypropylene microliter plates and PBS pH 7.4 with 0.5% BSA and 0.02% Tween 20 as assay buffer. […] Wells without antigen were used to determine Bmax values; wells containing neither antigen nor IgG were used to determine background. After addition of e.g. 10 pM IgG (final concentration in 60 μl final volume), the mixture was incubated over night at RT. The applied IgG concentration was similar to or below the expected KD.
(§3) Streptavidin MSD plates were coated with 0.2 μg/ml biotinylated human C5 (30 μl/well) and blocked with 5% BSA in PBS. Subsequently the equilibrated samples were transferred to those plates (30 μl per well) and incubated for 20 min. After washing, 30 μl/well of the ECL Sulfo-tag labeled detection antibody (goat anti-human (Fab)₂) in a final dilution of 1:1500 was added to the MSD plate and incubated for 30 min on an Eppendorf shaker (700 rpm).

[5] = molecular target: cynomolgus C5 (Macaca fascicularis) (cynomolgus (Macaca fascicularis))
[6] = molecular target: T1, human complement C5 protein; assay: SPR (Biacore), IgG captured via anti-human Fc, C5 injected
Procedure: (§4) A CM4 chip was coated with 50 μg/ml goat anti-human Fc antibody (500-2000 RU) in 10 mM acetate buffer, pH 4.5, using standard EDC-NHS amine coupling chemistry. Each anti-human C5 IgG was captured on the chip in HBS-EP buffer at constant flow rate of 10 μl/min for a contact time leading to a ligand density around 20 RU. […] Each cycle was completed with two regeneration steps with phosphoric acid. All running conditions were carried out at 25° C. in 1× HBS-EP buffer. The resulting signals were adjusted by double referencing, substracting the refraction index values from the reference flow cell and the binding step with no analyte. Data were collected at 10 Hz and analyzed using the Biacore T100 Evaluation Software Version 1.1 (GE). This program uses a global fitting analysis method for the determination of rate and affinity constants for each interaction. […]

[7] = molecular target: T1, human complement C5 protein; remark: listed apart in the source
[8] = molecular target: T1, human complement C5 protein; assay: SET (MSD), IgG, 2nd measurement
Procedure: as §1, §2, §3

[9] = molecular target: T2, cynomolgus C5 (Macaca fascicularis) (cynomolgus (Macaca fascicularis), Beta and alpha chains are joined by disulfide bonds; the protein is a serum glycoprotein.); assay: cell-based or functional assay
T2 beta: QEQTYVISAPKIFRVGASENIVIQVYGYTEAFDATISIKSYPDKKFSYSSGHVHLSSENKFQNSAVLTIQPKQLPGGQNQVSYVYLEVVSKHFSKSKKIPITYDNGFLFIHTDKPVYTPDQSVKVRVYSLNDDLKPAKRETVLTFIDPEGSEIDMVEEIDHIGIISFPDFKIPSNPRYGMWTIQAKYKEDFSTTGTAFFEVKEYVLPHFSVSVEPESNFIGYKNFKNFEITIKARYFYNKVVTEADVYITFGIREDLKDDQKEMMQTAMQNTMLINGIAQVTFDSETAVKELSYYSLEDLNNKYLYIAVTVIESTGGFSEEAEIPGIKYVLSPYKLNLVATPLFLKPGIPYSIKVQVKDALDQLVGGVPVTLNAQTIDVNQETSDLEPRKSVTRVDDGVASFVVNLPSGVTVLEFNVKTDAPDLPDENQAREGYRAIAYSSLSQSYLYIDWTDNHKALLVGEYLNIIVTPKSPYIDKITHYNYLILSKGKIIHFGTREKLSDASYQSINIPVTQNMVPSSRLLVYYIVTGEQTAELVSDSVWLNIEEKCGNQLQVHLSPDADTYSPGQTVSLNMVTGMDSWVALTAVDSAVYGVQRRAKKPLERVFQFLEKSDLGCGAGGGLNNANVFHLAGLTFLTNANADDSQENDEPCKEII
T2 alpha: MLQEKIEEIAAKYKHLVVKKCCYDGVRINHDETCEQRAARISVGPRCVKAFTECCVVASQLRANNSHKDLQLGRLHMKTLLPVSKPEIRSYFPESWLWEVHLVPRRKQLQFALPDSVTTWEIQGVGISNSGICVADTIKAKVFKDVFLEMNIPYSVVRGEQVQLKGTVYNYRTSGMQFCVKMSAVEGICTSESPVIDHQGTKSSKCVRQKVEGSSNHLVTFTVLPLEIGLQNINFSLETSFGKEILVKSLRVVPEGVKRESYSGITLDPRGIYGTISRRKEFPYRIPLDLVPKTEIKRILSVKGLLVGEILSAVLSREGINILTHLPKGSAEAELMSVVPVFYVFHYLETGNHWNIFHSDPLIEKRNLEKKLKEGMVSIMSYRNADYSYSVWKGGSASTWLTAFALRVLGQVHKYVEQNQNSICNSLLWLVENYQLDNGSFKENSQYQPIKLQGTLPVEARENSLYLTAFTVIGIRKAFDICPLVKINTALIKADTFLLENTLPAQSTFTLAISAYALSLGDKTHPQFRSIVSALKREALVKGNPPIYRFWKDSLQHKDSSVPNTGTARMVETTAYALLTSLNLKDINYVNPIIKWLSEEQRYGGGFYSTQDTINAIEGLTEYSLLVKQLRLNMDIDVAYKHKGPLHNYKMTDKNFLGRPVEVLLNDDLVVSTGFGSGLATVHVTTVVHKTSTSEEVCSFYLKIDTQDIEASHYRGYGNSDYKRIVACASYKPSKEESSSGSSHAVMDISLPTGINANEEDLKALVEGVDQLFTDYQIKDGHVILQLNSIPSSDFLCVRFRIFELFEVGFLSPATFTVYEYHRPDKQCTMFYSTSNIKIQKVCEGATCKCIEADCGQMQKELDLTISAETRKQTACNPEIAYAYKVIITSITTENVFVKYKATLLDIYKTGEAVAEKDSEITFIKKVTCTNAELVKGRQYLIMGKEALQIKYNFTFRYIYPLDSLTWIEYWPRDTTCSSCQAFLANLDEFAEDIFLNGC

[10] = molecular target: T1, human complement C5 protein; assay: cell-based or functional assay
[11] = molecular target: T1, human complement C5 protein; assay: cell-based or functional assay; remark: listed apart in the source
[12] = molecular target: T2, cynomolgus C5 (Macaca fascicularis); assay: SET (MSD), IgG, 1st measurement
Procedure: as §1, §2, §3

[13] = molecular target: T2, cynomolgus C5 (Macaca fascicularis); assay: SPR (Biacore), IgG captured via anti-human Fc, C5 injected
Procedure: as §4

[14] = molecular target: T2, cynomolgus C5 (Macaca fascicularis); assay: SET (MSD), IgG, 2nd measurement
Procedure: as §1, §2, §3

[15] = molecular target: T1, human complement C5 protein; assay: cell-based or functional assay; remark: listed apart in the source
[16] = molecular target: T3, human complement C3 (human, UniProt P01024 23-667; P01024 672-1663); assay: solution ELISA: Fab with biotinylated antigen on NeutrAvidin plate, His-tag detection [huC3 panel]
T3 construct: Counter target in the ELISAs, coated directly or biotinylated; also called human C3
Procedure: Fabs were incubated with biotinylated antigen on a Neutravidin plate and detected via the histidin tag.

[17] = molecular target: T2, cynomolgus C5 (Macaca fascicularis); assay: affinity chromatography

T3 sequence (P01024 23-667 limits assumed, chain 1 of 2): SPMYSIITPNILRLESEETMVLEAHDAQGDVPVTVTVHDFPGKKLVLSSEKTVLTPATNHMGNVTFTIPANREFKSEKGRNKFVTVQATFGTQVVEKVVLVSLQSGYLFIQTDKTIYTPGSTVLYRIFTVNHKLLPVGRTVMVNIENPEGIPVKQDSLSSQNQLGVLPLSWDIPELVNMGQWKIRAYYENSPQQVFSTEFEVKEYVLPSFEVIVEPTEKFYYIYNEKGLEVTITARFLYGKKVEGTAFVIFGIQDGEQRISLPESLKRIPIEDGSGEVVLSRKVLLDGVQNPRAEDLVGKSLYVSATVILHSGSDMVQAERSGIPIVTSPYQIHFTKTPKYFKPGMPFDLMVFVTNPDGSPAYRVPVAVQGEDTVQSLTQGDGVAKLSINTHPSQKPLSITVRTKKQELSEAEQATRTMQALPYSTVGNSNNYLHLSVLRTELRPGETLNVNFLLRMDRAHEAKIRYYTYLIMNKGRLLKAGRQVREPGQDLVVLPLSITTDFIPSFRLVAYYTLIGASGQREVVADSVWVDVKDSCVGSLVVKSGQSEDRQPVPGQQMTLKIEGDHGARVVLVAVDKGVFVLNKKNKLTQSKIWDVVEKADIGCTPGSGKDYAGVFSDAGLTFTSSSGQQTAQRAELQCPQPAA
T3 sequence (P01024 672-1663 limits assumed, chain 2 of 2): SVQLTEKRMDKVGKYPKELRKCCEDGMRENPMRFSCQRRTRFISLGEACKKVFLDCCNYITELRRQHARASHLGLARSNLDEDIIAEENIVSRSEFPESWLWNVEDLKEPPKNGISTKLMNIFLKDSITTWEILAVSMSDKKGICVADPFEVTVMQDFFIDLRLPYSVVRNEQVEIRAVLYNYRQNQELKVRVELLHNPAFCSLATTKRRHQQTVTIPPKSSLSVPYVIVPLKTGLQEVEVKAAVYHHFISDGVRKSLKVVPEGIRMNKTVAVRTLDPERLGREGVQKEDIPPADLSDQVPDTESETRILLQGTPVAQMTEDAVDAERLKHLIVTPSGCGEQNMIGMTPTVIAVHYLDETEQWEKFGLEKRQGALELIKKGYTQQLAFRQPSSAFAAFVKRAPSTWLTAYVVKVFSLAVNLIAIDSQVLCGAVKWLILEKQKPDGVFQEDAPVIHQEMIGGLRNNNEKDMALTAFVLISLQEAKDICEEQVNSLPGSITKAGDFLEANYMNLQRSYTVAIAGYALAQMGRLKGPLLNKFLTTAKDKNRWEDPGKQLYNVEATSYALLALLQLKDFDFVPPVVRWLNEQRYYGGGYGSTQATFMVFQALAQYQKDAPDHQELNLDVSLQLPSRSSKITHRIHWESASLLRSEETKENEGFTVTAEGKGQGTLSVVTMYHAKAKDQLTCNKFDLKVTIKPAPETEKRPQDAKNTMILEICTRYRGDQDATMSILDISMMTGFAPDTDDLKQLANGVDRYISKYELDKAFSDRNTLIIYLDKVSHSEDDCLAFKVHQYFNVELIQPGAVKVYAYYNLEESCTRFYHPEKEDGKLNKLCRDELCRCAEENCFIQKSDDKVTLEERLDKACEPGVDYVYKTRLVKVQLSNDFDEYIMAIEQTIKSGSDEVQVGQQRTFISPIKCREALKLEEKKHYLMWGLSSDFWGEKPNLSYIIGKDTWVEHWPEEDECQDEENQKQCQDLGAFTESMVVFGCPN

Work on 5G1.1 (antibody) yielded an IC50; hemolysis AP, 100 pM human C5 [panel a] [1] of 0.14 nM, an IC50; hemolysis AP, 100 pM human C5 [panel c] [1] of 0.205 nM and an IC50 (read off the curve); C5a ELISA on AP hemolysis supernatants, 20% human serum [panel d] [2] of 20 nM. For the same molecule, the IC50 (read off the curve); hemolysis AP, 20% human serum [panel c] [2] was 50 nM, the IC50 (read off the curve); hemolysis AP, 100 pM human C5 [panel b] [3] was 90 pM and the Kd [4] was 0.024 nM. For the same molecule, the IC50; hemolysis AP, 100 pM cyno C5 in 20% human C5-depleted serum [panel a] [5] was 1.71 nM, the Kd [6] was 0.056 nM and the IC50; hemolysis AP, 100 pM human C5 [panel i] [7] was 58.2 pM. It also gave a Kd [8] of 0.019 nM.

B1: MOR08111 (antibody, human IgG1, lambda, L234A L235A, V domains shown)
VH: EVTLKESGPALVKPTQTLTLTCTFSGFSLSTSGGGVSWIRQPPGKALEWLANIDDADIKDYSPSLKSRLTISKDTSKNQVVLTMTNMDPVDTATYYCARGPYGFDSWGQGTLVTVSS
VL: ESALTQPASVSGSPGQSITISCTGTSSDIGTYNYVSWYQQHPGKAPKLMIYDDSNRPSGVSNRFSGSKSGNTASLTISGLQAEDEADYYCQSYDSQSIVFGGGTKLTVLG
notes: Germlined final IgG, human IgG1AA format
B1 was tested, and the “IC50 (read off the curve); hemolysis CP, 5% cyno serum” value [9] was about 20 nM, the “IC50 (read off the curve); hemolysis AP, 100 pM human C5 [panel a]” value [10] was about 0.1 nM and the “IC50; hemolysis CP, 20% human serum” value [11] was 21.5 nM. The Kd [12] was 0.014 nM, the Kd [4] was 0.005 nM and the Kd [13] was 0.144 nM. For the same molecule, the koff [13] was 0.000128 s⁻¹, the kon [13] was 891000 M⁻¹ s⁻¹ and the Kd [6] was 0.031 nM. It also gave a koff [6] of 3.07e-05 s⁻¹, a kon [6] of 1e+06 M⁻¹ s⁻¹ and a Kd [14] of 0.017 nM. The Kd [8] was 0.003 nM.

B2: MOR08114 (antibody, human IgG1, lambda, L234A L235A, V domains shown)
VH: EVQLVQSGAEVKKPGESLKISCKGSGYSFTSYYIGWVRQMPGKGLEWMGIIDPTDSQTAYSPSFQGQVTISADKSISTAYLQWSSLKASDTAMYYCARYMMRGFDHWGQGTLVTVSS
VL: SYELTQPPSVSVAPGQTARISCSGDSLGDYYAYWYQQKPGQAPVLVIYKDNNRPSGIPERFSGSNSGNTATLTISGTQAEDEADYYCQTWDTGESGVFGGGTKLTVLG
notes: Germlined final IgG, human IgG1AA format; also called Antibody 8114
In the case of B2, the “IC50 (read off the curve); hemolysis CP, 5% cyno serum” value [9] is reported as about 30 nM, the “IC50 (read off the curve); hemolysis AP, 100 pM human C5 [panel c]” value [10] is reported as about 20 pM and the “IC50; hemolysis CP, 20% human serum” value [11] is reported as 34.1 nM. The “IC50 (read off the curve); hemolysis AP, 20% human serum [panel c]” value [15] was about 50 nM, the Kd [12] was 0.005 nM and the Kd [4] was 0.001 nM. For the same molecule, the Kd [13] was 0.031 nM, the koff [13] was 3.13e-05 s⁻¹ and the kon [13] was 1.06e+06 M⁻¹ s⁻¹. The Kd [6] was 0.015 nM, the koff [6] was 3.12e-05 s⁻¹ and the kon [6] was 2.09e+06 M⁻¹ s⁻¹. The Kd [14] was 0.004 nM and the Kd [8] was 0.002 nM.

B3: MOR07872 (Fab, V domains shown)
VH: QVQLVQSGAEVKKPGESLKISCKGSGYSFTSYYIGWVRQMPGKGLEWMGIIDPSDSHTTYSPSFQGQVTISADKSISTAYLQWSSLKASDTAMYYCARYMMRGFDHWGQGTLVTVSS
VL: DIELTQPPSVSVAPGQTARISCSGDSLGDYYAYWYQQKPGQAPVLVIYKDNNRPSGIPERFSGSNSGNTATLTISGTQAEDEADYYCQTWDILPHGLVFGGGTKLTVLG
notes: light CS or A
B3: no binding (tested: 100 nM) [16].

B4: MOR07873 (Fab, V domains shown)
VH: QVQLVQSGAEVKKPGESLKISCKGSGYSFTSYYIGWVRQMPGKGLEWMGIIDPSDSHTTYSPSFQGQVTISADKSISTAYLQWSSLKASDTAMYYCARYMMRGFDHWGQGTLVTVSS
VL: DIELTQPPSVSVAPGQTARISCSGDSLGDYYAYWYQQKPGQAPVLVIYKDNNRPSGIPERFSGSNSGNTATLTISGTQAEDEADYYCQAWTDSPTGLVFGGGTKLTVLG
notes: light CS or A
B4: no binding (tested: 100 nM) [16].

B5: MOR07086 hu IgG1 (antibody, V domains shown)
VH: QVQLVQSGAEVKKPGSSVKVSCKASGGTFSSYAISWVRQAPGQGLEWMGGIGPFFGTANYAQKFQGRVTITADESTSTAYMELSSLRSEDTAVYYCARDTPYFDYWGQGTLVTVSS
VL: DIELTQPPSVSVAPGQTARISCSGDSIPNYYVYWYQQKPGQAPVLVIYDDSNRPSGIPERFSGSNSGNTATLTISGTQAEDEADYYCQSFDSSLNAEVFGGGTKLTVL
B5: binds [17].

Source: patent US20130064836A1 (Novartis, published 2013)
